{"source": "patent US20130079286A1", "about": "(Pieris, published 2013)", "key": {"[1]": {"target": "T1, recombinant human fibronectin fragment FN7B8 (human, UniProt P02751 1173-1448)", "T1 construct": "no separate number is printed for the protein, so the entry may be a nucleic acid", "T1 sequence (P02751 other isoform, or with tags, fused parts or gaps limits assumed)": "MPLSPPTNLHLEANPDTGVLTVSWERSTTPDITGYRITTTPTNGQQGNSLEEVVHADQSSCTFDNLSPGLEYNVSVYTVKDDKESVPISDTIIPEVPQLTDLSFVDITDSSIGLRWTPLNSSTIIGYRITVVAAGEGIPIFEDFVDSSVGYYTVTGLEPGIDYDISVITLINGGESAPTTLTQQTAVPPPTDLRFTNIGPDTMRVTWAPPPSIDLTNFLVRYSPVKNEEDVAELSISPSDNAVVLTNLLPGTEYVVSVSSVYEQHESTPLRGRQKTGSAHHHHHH", "experiment": "SPR (BIAcore X), FN7B8 amine-coupled (about 500 RU), mutein as analyte", "source_text": "(§1) FIG. 13 depicts the kinetic real time analysis of Lcn2 mutein N9B measured on a Biacore instrument. FN7B8 was coupled via amine chemistry to a CMD 200 m sensor chip (ΔRU=500) and the purified Lcn2 mutein was applied at varying concentrations. The measured signal is shown as a grey line whereas the curve fit is depicted as a black line in each case.\nas §1, with “14” for “13”, “N7E” for “N9B”\nReal time analysis of Lcn2 muteins was performed on a BIAcore X system (BIAcore, Uppsala, Sweden) using HBS/ET (20 mM Hepes, pH 7.5, 150 mM NaCl, 1 mM EDTA containing 0.005% (v/v) Tween 20) as running buffer. 200 μg/ml solution of recombinant FN7B8 in 10 mM Na-acetate, pH 4.0 was immobilized on a CMD 200 m Sensorchip (XanTec bioanalytics, Duesseldorf, Germany) using standard amine coupling chemistry (Biacore, Uppsala, Sweden), resulting in a ligand density of about 500 resonance units (RU). The purified Lcn2 mutein was applied at a flow rate of 25 μl/min at concentrations of 2.5 up to 160 nM. The sensorgrams were corrected by subtraction of the corresponding signals measured for the control channel, which had been activated and blocked with ethanolamine."}, "[2]": {"target": "T2, BSA (bovine, UniProt P02769 25-607)", "T2 construct": "also called bovine serum albumin", "T2 sequence (P02769 25-607 limits assumed)": "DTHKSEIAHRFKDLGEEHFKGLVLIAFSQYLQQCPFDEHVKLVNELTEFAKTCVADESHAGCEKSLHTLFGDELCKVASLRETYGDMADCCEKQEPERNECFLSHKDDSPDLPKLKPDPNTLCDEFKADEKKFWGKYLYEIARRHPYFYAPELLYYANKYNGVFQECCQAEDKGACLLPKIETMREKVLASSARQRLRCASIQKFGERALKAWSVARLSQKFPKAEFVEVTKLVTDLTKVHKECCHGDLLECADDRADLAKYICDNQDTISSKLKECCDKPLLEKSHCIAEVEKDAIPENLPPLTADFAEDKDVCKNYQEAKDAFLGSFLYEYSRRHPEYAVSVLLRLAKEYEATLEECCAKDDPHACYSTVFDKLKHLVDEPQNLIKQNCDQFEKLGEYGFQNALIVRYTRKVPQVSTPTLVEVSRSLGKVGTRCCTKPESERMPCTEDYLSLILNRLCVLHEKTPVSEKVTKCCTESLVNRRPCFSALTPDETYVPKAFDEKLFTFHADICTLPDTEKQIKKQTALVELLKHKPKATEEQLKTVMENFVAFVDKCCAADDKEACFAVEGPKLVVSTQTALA", "experiment": "ELISA on coated protein"}, "[3]": {"target": "T3, recombinant human fibronectin fragment FN789 (human, UniProt P02751 1173-1539)", "T3 construct": "the entry may be a nucleic acid", "T3 sequence (P02751 other isoform, or with tags, fused parts or gaps limits assumed)": "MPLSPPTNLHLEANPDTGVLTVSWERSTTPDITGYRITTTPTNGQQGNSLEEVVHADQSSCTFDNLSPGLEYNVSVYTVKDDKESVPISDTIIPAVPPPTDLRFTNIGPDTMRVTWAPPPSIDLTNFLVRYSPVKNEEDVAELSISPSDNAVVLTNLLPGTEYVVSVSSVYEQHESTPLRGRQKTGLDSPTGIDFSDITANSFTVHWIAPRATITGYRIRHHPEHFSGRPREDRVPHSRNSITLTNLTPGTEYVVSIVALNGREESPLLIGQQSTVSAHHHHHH", "experiment": "ELISA on coated protein"}, "[4]": {"target": "T4, recombinant fibronectin single domain ED-B (human)", "T4 construct": "the entry may be a nucleic acid; also called extra domain-B; extra-domain B", "T4 sequence (chain, as listed by the source limits assumed)": "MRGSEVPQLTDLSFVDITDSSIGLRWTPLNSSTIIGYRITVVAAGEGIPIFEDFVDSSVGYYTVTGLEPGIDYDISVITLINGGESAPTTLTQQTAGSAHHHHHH", "experiment": "SPR (BIAcore X), ED-B immobilised by amine coupling, Lcn2 mutein injected at 0 to 80 nM, 1:1 model", "procedure": "(§2) FIG. 27 depicts the kinetic real time analysis of Lcn2 variants N7A (A), N7E (B), N9B (C) and N10D (D) measured on a Biacore X instrument. The single fibronectin domain ED-B was coupled via amine chemistry to a CMD 200 m sensor chip (ΔRU=180) and the purified Lcn2 variants were applied at varying concentrations. The measured signals are shown as traces together with the curve fits.\nReal time interaction analysis of Lcn2 muteins was performed on a BIAcore X instrument using HBS/ET (20 mM Hepes, pH 7.5, 150 mM NaCl, 1 mM EDTA containing 0.005% (v/v) Tween 20) as running buffer. 100 μg/ml solution of recombinant ED-B in 10 mM Na-acetate, pH 4.0 was immobilized on a CMD 200 m Sensorchip using standard amine coupling chemistry, resulting in a ligand density of about 180 resonance units (RU). […] The sensorgrams were corrected by subtraction of the corresponding signals measured for the control channel, which had been activated and blocked with ethanolamine. […] In the case of N10D the heterogeneous analyte competing reaction model was used for data fitting, resulting in two sets of kinetic constants."}, "[5]": {"target": "T4, recombinant fibronectin single domain …", "experiment": "SPR (BIAcore X), ED-B amine-coupled (about 180 RU), mutein as analyte", "procedure": "as §2\nReal time interaction analysis of Lcn2 muteins was performed on a BIAcore X instrument using HBS/ET (20 mM Hepes, pH 7.5, 150 mM NaCl, 1 mM EDTA containing 0.005% (v/v) Tween 20) as running buffer. 100 μg/ml solution of recombinant ED-B in 10 mM Na-acetate, pH 4.0 was immobilized on a CMD 200 m Sensorchip using standard amine coupling chemistry, resulting in a ligand density of about 180 resonance units (RU). The purified Lcn2 mutein was applied at a flow rate of 25 μl/min at concentrations of 2.5 up to 160 nM. The sensorgrams were corrected by subtraction of the corresponding signals measured for the control channel, which had been activated and blocked with ethanolamine. […] In the case of N10D the heterogeneous analyte competing reaction model was used for data fitting, resulting in two sets of kinetic constants."}, "[6]": {"target": "T1, recombinant human fibronectin fragment …", "experiment": "ELISA: FN7B8 coated, mutein titrated, detected via Strep-tag II"}, "[7]": {"target": "T5, MBP-Aβ40 fusion protein", "T5 construct": "the entry may be a nucleic acid; Biotin-labelled in the capture ELISA, unlabeled in the direct ELISA and SPR; also called MBP-Abeta40", "experiment": "SPR (Biacore X, FIG. 20), MBP-Aβ40 immobilised, H1GV injected; the table marks the row '* dissociation time not sufficiently long'", "procedure": "(§3) FIG. 20 depicts the kinetic real time analysis of Lcn2 muteins H1GA (A) and H1GV (B) measured on a Biacore X instrument at a flow rate of 20 μl/min. The MBP-Aβ40 fusion protein was coupled via amine chemistry to a CMD 2001 chip (ΔRU=1316) and each of the purified Lcn2 muteins was applied in a series at varying concentrations. The measured signal is shown as a grey line while the curve fit is depicted as a black line in each case.\n(§4) Real time analysis of the interaction between Lcn2 muteins H1GA or H1GV and MBP-Aβ40 (SEQ ID NO: 33) was performed on a Biacore X system using PBS/T (4 mM KH₂PO₄, 16 mM Na₂HPO₄, 115 mM NaCl, pH 7.4 containing 0.005% (v/v) Tween 20) as running buffer. A 15 μg/mL solution of MBP-Aβ40 from Example 2 in 10 mM Na-acetate, pH 4.5 was immobilized onto a CMD 200I chip (Xantec, Düsseldorf, Germany) using standard amine coupling chemistry, resulting in a ligand density of 1316 resonance units (RU). The purified Lcn2 muteins H1GA and H1GV from Example 20 were applied in concentrations ranging from 4 nM to 128 nM at a flow rate of 20 μL/min. The data were double-referenced by subtraction of the corresponding signals measured for the control channel, which had been activated and blocked with ethanolamine, as well as subtraction of the measured signals for an average of buffer injections."}, "[8]": {"target": "T6, Trx-Aβ28 fusion protein (Escherichia coli (strain K12), UniProt P0AA25 1-76 = thioredoxin, Biotin-labelled through an NHS ester (2:1) in the capture and competitive ELISAs; unlabeled in the direct ELISA and as competitor.)", "T6 construct": "the entry may be a nucleic acid; also called TrxAbeta28H6", "experiment": "capture ELISA: mutein captured via Strep-tag II, biotinylated Trx-Aβ28 titrated", "procedure": "(§5) FIG. 19 depicts the binding activity of the Lcn2 muteins H1GA, H1GV, and H1-G1 in capture ELISAs with the biotinylated Aβ targets Aβ40 (A) and Trx-Aβ28 (B). StrepMAB-Immo was immobilized at 10 μg/ml on microtitre plates and employed for capturing of 1 μM Lcn2 muteins via the Strep-tag H. Binding of the biotinylated targets, applied in a dilution series, was then detected by incubation with ExtrAvidin/AP and a subsequent chromogenic reaction with pNPP. […] The data were fitted to a monovalent binding model."}, "[9]": {"target": "T7, ovalbumin (UniProt P01012 2-386)", "T7 sequence (looked up)": "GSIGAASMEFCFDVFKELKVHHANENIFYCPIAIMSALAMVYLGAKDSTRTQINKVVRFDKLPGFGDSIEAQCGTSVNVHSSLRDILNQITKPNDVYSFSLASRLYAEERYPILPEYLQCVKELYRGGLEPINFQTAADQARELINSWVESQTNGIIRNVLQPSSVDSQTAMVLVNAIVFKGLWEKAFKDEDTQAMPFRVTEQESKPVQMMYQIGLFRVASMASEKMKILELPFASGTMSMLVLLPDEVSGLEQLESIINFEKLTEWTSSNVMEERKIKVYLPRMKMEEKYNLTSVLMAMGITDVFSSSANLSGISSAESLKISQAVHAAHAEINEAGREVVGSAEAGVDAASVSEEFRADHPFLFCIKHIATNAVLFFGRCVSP", "experiment": "capture ELISA"}, "[10]": {"target": "T5, MBP-Aβ40 fusion protein", "experiment": "SPR (Biacore X), MBP-Aβ40 amine-coupled (1316 RU), mutein as analyte", "procedure": "as §3, §4"}, "[11]": {"target": "T8, biotinylated Aβ40 peptide (human, C-terminal biotin group attached via a lysine spacer)", "T8 construct": "Synthetic peptide (Peptide Speciality Laboratory) with a C-terminal biotin on a lysine spacer; used in the capture ELISAs", "T8 sequence (peptide, as listed by the source)": "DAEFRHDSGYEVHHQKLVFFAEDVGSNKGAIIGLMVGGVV", "experiment": "capture ELISA: mutein captured via Strep-tag II, biotinylated Aβ40 titrated", "procedure": "as §5"}, "[12]": {"target": "T9, Aβ40 peptide, non-labeled (human)", "T9 construct": "Non-labeled synthetic peptide (W. M. Keck Laboratory); also called Abeta40; amyloid beta peptide", "T9 sequence (peptide, as listed by the source)": "as above", "experiment": "SPR (Biacore T100), Aβ40 amine-coupled on CM5 (325 RU), mutein as analyte", "procedure": "(§6) FIG. 21 depicts the kinetic real time analysis of the Lcn2 mutein H1GA measured on a Biacore T100 instrument with immobilized Aβ40 using an extended dissociation time for a trace measured at high concentration. The target peptide Aβ40 was coupled via amine chemistry onto the Biacore CM5 chip (ΔRU=325), and the purified Lcn2 mutein H1GA was applied at a flow rate of 30 μl/min. For exact determination of the low koff rate, dissociation was performed for 7200 s at the highest concentration tested. kon rates were determined using the dilution series of the Lcn2 mutein H1GA with both association and dissociation times of 300 s.\n(§7) Real time analysis of the interaction between the Lcn2 mutein H1GA and Aβ40 (SEQ ID NO: 29) was performed on a Biacore T100 system (Biacore, Uppsala, Sweden) using PBS/P (4 mM KH₂PO₄, 16 mM Na₂HPO₄, 115 mM NaCl, pH 7.4 containing 0.005% (v/v) Surfactant P20) as running buffer. […] For exact determination of the low koff rate the highest concentration was analysed using a dissociation time of 7200 s. The data were double-referenced as in Example 21. kₒₙ and koff for the binding reaction were determined from the entire data set using Biacore T100 Evaluation Software V2.0.3 for data processing and kinetic fitting. […]"}, "[13]": {"target": "T9, Aβ40 peptide, non-labeled", "experiment": "SPR (Biacore T100), Aβ40 amine-coupled on CM5 (325 RU), dissociation 7200 s", "procedure": "as §6, §7"}, "[14]": {"target": "T5, MBP-Aβ40 fusion protein", "experiment": "SPR (Biacore X, FIG. 20), MBP-Aβ40 immobilised, H1GA injected; the table marks the row '* dissociation time not sufficiently long'", "procedure": "as §3, §4"}}, "data": [{"binder": "Lcn2 mutein N9B (designed binder) QDSTSDLIPAPPLSKVPLQQNFQDNQFHGKWYVVGRAGNMRLREDKDPAKMVATIYELKEDKSYNVTKVMFQRKKCKYMINTFVPGSQPGEFTLGAIKSPPGPTSTLVRVVSTNYNQHAMVFFKHVFQNREYFHITLYGRTKELTSELKENFIRFSKSLGLPENHIVFPVPIDQCIDG", "values": [{"measurement": "Kd", "setting": "[1]", "result": 36, "unit": "nM"}, {"measurement": "koff", "setting": "[1]", "result": 0.075, "unit": "s⁻¹"}, {"measurement": "kon", "setting": "[1]", "result": "2.1e+06", "unit": "M⁻¹ s⁻¹"}, {"measurement": "binding result", "setting": "[2]", "result": "no binding"}, {"measurement": "binding result", "setting": "[3]", "result": "no binding"}, {"measurement": "Kd", "setting": "[4]", "result": 5.3, "unit": "nM"}, {"measurement": "Kd", "setting": "[5]", "result": 5.26, "unit": "nM"}, {"measurement": "koff", "setting": "[5]", "result": 0.00762, "unit": "s⁻¹"}, {"measurement": "kon", "setting": "[5]", "result": "1.45e+06", "unit": "M⁻¹ s⁻¹"}, {"measurement": "Kd", "setting": "[6]", "result": 40.1, "unit": "nM"}]}, {"binder": "Lcn2 mutein H1GV (designed binder, H1-G1 with Cys36 replaced by Val) QDSTSDLIPAPPLSKVPLQQNFQDNQFHGKWYVVGVAGNVLLREDKDPLKMYATIYELKEDKSYNVTSVGFDDKKCLYKIRTFVPGSQPGEFTLGRIKSEPGGTSWLVRVVSTNYNQHAMVFFKEVAQNRETFNITLYGRTKELTSELKENFIRFSKSLGLPENHIVFPVPIDQCIDG", "values": [{"measurement": "Kd", "setting": "[7]", "result": 1.1, "unit": "nM"}, {"measurement": "Kd", "setting": "[8]", "result": 4.2, "unit": "nM"}, {"measurement": "binding result", "setting": "[9]", "result": "no binding"}, {"measurement": "Kd", "setting": "[10]", "result": 1.06, "unit": "nM"}, {"measurement": "koff", "setting": "[10]", "result": "7.26e-05", "unit": "s⁻¹"}, {"measurement": "kon", "setting": "[10]", "result": 68400, "unit": "M⁻¹ s⁻¹"}, {"measurement": "Kd", "setting": "[11]", "result": 4.9, "unit": "nM"}]}, {"binder": "Lcn2 mutein H1GA (designed binder, H1-G1 with Cys36 replaced by Ala) QDSTSDLIPAPPLSKVPLQQNFQDNQFHGKWYVVGAAGNVLLREDKDPLKMYATIYELKEDKSYNVTSVGFDDKKCLYKIRTFVPGSQPGEFTLGRIKSEPGGTSWLVRVVSTNYNQHAMVFFKEVAQNRETFNITLYGRTKELTSELKENFIRFSKSLGLPENHIVFPVPIDQCIDG", "values": [{"measurement": "Kd", "setting": "[8]", "result": 3.8, "unit": "nM"}, {"measurement": "Kd", "setting": "[12]", "result": 0.095, "unit": "nM"}, {"measurement": "kon", "setting": "[12]", "result": 125000, "unit": "M⁻¹ s⁻¹"}, {"measurement": "koff", "setting": "[13]", "result": "1.18e-05", "unit": "s⁻¹"}, {"measurement": "binding result", "setting": "[9]", "result": "no binding"}, {"measurement": "Kd", "setting": "[10]", "result": 0.476, "unit": "nM"}, {"measurement": "koff", "setting": "[10]", "result": "2.75e-05", "unit": "s⁻¹"}, {"measurement": "kon", "setting": "[10]", "result": 57700, "unit": "M⁻¹ s⁻¹"}, {"measurement": "Kd", "setting": "[11]", "result": 4.2, "unit": "nM"}, {"measurement": "Kd", "setting": "[14]", "result": 0.48, "unit": "nM"}]}]}
